The values below come from US20250355001A1, “METHOD FOR DETECTING A TAU PROTEIN FRAGMENT IN A SAMPLE” (GTINVENT LIMITED, priority 2022, published 2025).

Assay [1] deals with hT40, dGA, dGAE and truncated tau fragments. Description: Binding ELISA / epitope mapping of anti-tau scAbs with truncated tau proteins and 13mer peptides. Details: species or system human. The following applies: for Tau proteins/fragments with positive scAb reactivity / Shortest region bound on hT40: Table 17, 'C' group scAbs; for Tau proteins/fragments with positive scAb reactivity: binding ELISA; for Shortest region bound on hT40: incl. 13mer peptides; for Detection scAb (Epitope): Table 28 (LoD table). The procedure, abridged: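 Plates coated with 1 μg/ml tau protein, or 5 μg/ml streptavidin then 1 μg/ml biotinylated 13mer peptide; blocked with 2% MPBS. scAbs added at a starting concentration and double-diluted. Bound scAb detected with HRP anti-human C kappa and read as absorbance.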

The target in the next assay is T1, hT40 (Homo sapiens, UniProt P10636).
T1 construct: Full length tau (hT40)
T1 sequence (P10636 1-441 isoform P10636-8): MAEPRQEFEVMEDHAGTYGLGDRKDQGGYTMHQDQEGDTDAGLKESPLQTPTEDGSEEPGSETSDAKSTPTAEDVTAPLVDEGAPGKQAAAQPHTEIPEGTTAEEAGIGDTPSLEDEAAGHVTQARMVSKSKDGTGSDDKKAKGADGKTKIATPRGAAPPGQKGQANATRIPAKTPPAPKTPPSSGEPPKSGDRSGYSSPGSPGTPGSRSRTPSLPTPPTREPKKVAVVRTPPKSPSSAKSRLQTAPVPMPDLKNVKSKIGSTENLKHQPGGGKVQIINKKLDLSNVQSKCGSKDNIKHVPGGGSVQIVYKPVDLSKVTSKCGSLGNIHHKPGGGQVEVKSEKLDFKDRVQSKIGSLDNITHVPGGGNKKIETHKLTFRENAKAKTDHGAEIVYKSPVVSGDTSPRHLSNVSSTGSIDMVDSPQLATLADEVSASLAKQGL
Briefly: Sandwich ELISA limits of detection (LoD) of antibody pairs. It counts as binding. The source says: The diverse panel of high affinity anti-tau antibodies (scAb and mAb formats) were paired in various combinations and tested in a Sandwich (or Capture) ELISA format to calculate their limits of detection (LoD) and their ability to differentiate between different tau species. Biologically, tau exists in 6 different isoforms and is subjected to numerous post translational modifications, some of them playing a significant role in the progression of neurodegeneration.
For Sandwich ELISA using colourimetric detection, 96 well Maxisorp plates were coated with the capture antibody S1D12 mAb at 1 μg/ml for 1 h at RT followed by blocking with 2% MPBS as normal. Full length tau (hT40), at 1 μg/ml starting concentration was added to designated wells and double diluted across rest of the plates and left to incubate at R/T for 1 h. A series of detection scAbs with varying epitope recognition properties were added at 10 μg/ml to designated wells (FIG. 22). For colourimetric detection HRP conjugated anti-HuCk secondary antibody was used and the resulting immunoreaction was developed and absorbance at 450 nm measured as described previously. Cut-off point for a positive binding event was an absorbance value of 0.3 following background subtraction. In order to enhance the assay sensitivity, a chemiluminescent detection method was adopted where 50 μL SuperSignal ELISA Femto Substrate (Thermo Scientific) was added to each well following incubation with anti-HuCK HRP antibody and subsequent washing. The luminescence was read using Clariostar Plus microplate reader. A further modification to this protocol was done where various detection scAbs were directly conjugated with HRP and detected using chemiluminescent protocol as before. The lowest levels of detection achieved using different detection scAbs and a comparison of colourimetric and chemiluminescent methods of detection are shown in Table 28
Similarly, a sandwich ELISA format was set up using S1G2 mAb at 1 μg/ml as the capture antibody and HRP conjugated S1D12 mAb for detection. The assay was conducted using chemiluminescent protocol described above.
(In general: An ELISA detects its analyte on a solid surface through an enzyme-linked reagent.)

The test system of assay [2] is 13 aa tau peptides of hT40. Description: Alanine scanning mutagenesis (ASM) peptide ELISA. It counts as binding, human. The following applies: alanine substituted peptides; numbering SEQ ID NO: 1. On the procedure:
Briefly, 5 μg/ml streptavidin (Thermo Fisher) was adsorbed to Nunc 96-well MaxiSorp plates and following incubation at 37° C. for 1 h, the plates were washed as normal and blocked with 2% MPBS. N-terminally biotinylated peptides (Prolmmune Ltd) were added to the plates and incubated for 1 h at 37° C. Subsequently, test scAbs at starting concentrations of 100-500 nM was added and double diluted across the plate for each peptide and incubated for 1 h at 37° C. Rest of the ELISA was conducted as described above and the plates were read at absorbance 450 nm. Immunoreactivity of the scAb of interest was quantified as the % of scAb was bound for each peptide at a chosen concentration (FIG. 15-20).

Assay [3] has as its target T2, hT40 (T441, SEQ ID NO: 1) (Homo sapiens, UniProt P10636).
T2 construct: Full length tau (hT40)
Description: Biacore X100 SPR kinetics of scAbs for hT40. The format is binding. The following applies: Table 23; scAb captured, T441 (hT40) analyte; 1:1 model. The procedure, abridged:
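Captured scAb on anti-HuCk CM5 surface (flow cell 1 as reference) in HBS-EP+, capture set for theoretical RMax 100 RU; hT40 injected multi-cycle (0.15625–100 nM) or single-cycle (6.25–100 nM), 120 s association, 420 s dissociation, glycine pH 2.0 regeneration. Kinetics and affinity from 1:1 binding model fit.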
On the technique in general: Surface plasmon resonance follows binding to a sensor surface in real time, without labels.

The next assay deals with T3, htau40 (Homo sapiens, UniProt P10636).
T3 construct: Full length tau (hT40)
T3 sequence (P10636 1-441 isoform P10636-8): as above
Description: Biacore X100 SPR kinetics of anti-tau mAbs on immobilised htau40. It counts as binding. On the procedure: For anti-tau mAb SPR measurements, htau40 was conjugated to the surface of a CM5 sensor chip using amine coupling as explained previously. Briefly, 2 μg/mL htau40 in 10 mM Sodium acetate buffer (pH 4.0) was passed over the activated chip surface (EDC/NHS) in flow cell 2 for a period for 45 s followed by blocking with 1 M ethanolamine-HCl PH 8.5. Flow cell 1 was set up as reference control and blocked simultaneously. Final immobilisation level of htau40 (Rmax) was approximately 250 RU. Following a minimum of three start-up cycles, increasing concentrations (0.78 nM-25 nM) of the mAb in HBS-EP+ buffer was added at a rate of […] to the chip. The mAb was added for a 120 s association period and 600 s dissociation period followed by a regeneration cycle of 30 s injection of glycine buffer pH 1.5 in between each cycle. Binding responses were analysed in Biacore X100 evaluation software and data fitted to a 1:1 binding model to obtain kinetic and affinity characterisation.
For anti-tau mAb SPR measurements (Biacore X100™) and epitope mapping, the same methodologies described above (see Example 16) were followed. Kinetic rates and equilibrium binding constants of additional anti-tau mAbs and the regions recognised on hT40 are given in the Table 25 below

Another assay deals with dGAE aggregates (Homo sapiens, UniProt P10636). Description: Epitope occlusion assay: dGAE aggregation with/without LMTM, 423 mAb capture ELISA. The format is biochemical. The following applies: total and supernatant samples; 423 mAb capture. As for the experimental part:
During dGAE aggregation in vitro, scAb binding regions on dGA/dGAE are ‘hidden’ or ‘occluded’ which leads to a loss of immunoreactivity in aggregation samples. Here we have shown the occlusion of binding regions in aggregated dGAE samples and the recovery of immunoreactivity in the presence of LMTM, a tau-aggregation inhibitor. For preparing the aggregates, 10 μl 10 mM DTT was added to 1000 μl 100 μM dGAE and agitated with/without LMTM (1:5 ratio) at 700 rpm for 24 h at 37° C. Following overnight agitation, one third of each sample was kept aside as ‘total’ and the rest was spun down at 16000×g for 30 min and separated into ‘supernatant’ and ‘pellet’. The pellet was then resuspended in half the original volume for further experiments. […] Doubling dilutions of dGAE aggregate ‘total’, ‘supernatant’ and ‘pellet’ samples at 10 μg/ml starting concentration were added to designated wells in doubling dilutions in 1×PBS. dGAE monomer (non-aggregated) was included as assay control. All double dilutions were done in final volumes of 100 μl. This was left to incubate on lab bench for 1 h followed by the addition of test scAbs at 10 μg/ml. Anti-HuCk HRP labelled secondary antibody was added as described previously and ELISA data generated is represented using the graph below.

The mark [4] stands for this setting: residue numbers of SEQ ID NO: 1 (hT40), CDR Tables 1-11.
[5] abbreviates: Table 27, mAb format, immobilised htau40.

Sequence of dGAE aggregates (P10636 614-708): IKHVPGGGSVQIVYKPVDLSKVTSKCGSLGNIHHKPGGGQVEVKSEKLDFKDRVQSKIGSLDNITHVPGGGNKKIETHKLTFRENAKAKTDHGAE
T2 sequence (P10636 1-441 isoform P10636-8): as the sequence (P10636 1-441 isoform P10636-8) above

B1: CA2: anti-tau clone, Table 10; SEQ ID NO: 363 (protein)
chain: QVQLQESGPSLVKPSQTLSLTCTVSGFSLSSVAVNWVRQAPGKVPEWLGGIISNGGTGYNPALKSRLSITRDTSKSQVSLALTHVTTEDTAVYYCGRGVEWEGSMDYLGPGLLVTVSSEGKSSGSGSETKVDDQSVLTQPSSVSGFLGQRVTITCSGSSSNVGAGSYVGWYQQVPGSGLRILIYGATKRASGLPDRFSGSRSGNTATLTISSLQAEDEADYYCVSYQTDFTLVFGSGTRLTVLG
modifications: CA2 amino acid sequence
Take B1: in assay [1], the “Tau proteins/fragments with positive scAb reactivity” value (“Tau proteins/fragments” below) is “hT40, 1-49, 1-319, 1-155, 186-350, 348-441” and the “Shortest region bound on hT40” value is given as 1-155. Besides, in assay [1] (residues of hT40), the “Detection scAb (Epitope)” value is listed as “CA2 (100-155)”. Besides, in assay [1] (setting [4]), the Epitope is reported as 1-155. Also, in the assay with hT40 (S1D12 mAb capture, hT40, SuperSignal ELISA Femto Substrate), the “LoD (ng/ml) chemiluminescence detection” value is 0.37 ng/mL. In the assay with hT40 (S1D12 mAb capture, hT40, detection scAb 10 μg/ml, anti-HuCk HRP), the “LoD (ng/ml) colourimetric detection” value was determined as 6 ng/mL.

B2: S1G2 mAb: S1G2 reformatted; heavy chain SEQ ID NO: 457, light chain 458 (antibody)
heavy: QVQLQESGPSLVKPSQTLSLTCTVSGFSLTSNSVGWVRQAPGKAPEWVAGIDTDGEEGYNPALNSRLSITRDTSKSQVSLSLSSVTSEDTAVYYCGRSYRADGLAYGYVQAIDYWGPGLLVTVSSAKTTAPSVYPLAPVCGDTTGSSVTLGCLVKGYFPEPVTLTWNSGSLSSGVHTFPAVLQSDLYTLSSSVTVTSSTWPSQSITCNVAHPASSTKVDKKIEPRGPTIKPCPPCKCPAPNLLGGPSVFIFPPKIKDVLMISLSPIVTCVVVDVSEDDPDVQISWFVNNVEVHTAQTQTHREDYNSTLRVVSALPIQHQDWMSGKEFKCKVNNKDLPAPIERTISKPKGSVRAPQVYVLPPPEEEMTKKQVTLTCMVTDFMPEDIYVEWTNNGKTELNYKNTEPVLDSDGSYFMYSKLRVEKKNWVERNSYSCSVVHEGLHNHHTTKSFSRTPGK
light: QAVVTQPSSVSGSLGQRVSITCSGSFIGISSVGWFQQLPGSGLRTIIVASDGRPSGVPDRFSMSKSGNTATLTISSLQAEDEADYFCGSSDRTPYTGVFGSGTRLTVLGGQPKSSPSVTLFPPSSEELETNKATLVCTITDFYPGVVTVDWKVDGTPVTQGMETTQPSKQSNNKYMASSYLTLTARAWERHSSYSCQVTHEGHTVEKSLSRADCS
modifications: S1G2 mAB Heavy Chain; S1G2 mAB Light Chain
For B2, the “LOD for hT40” value with hT40 (S1G2 mAb capture, HRP labelled S1D12 mAb detection, chemiluminescence) was roughly 1 ng/mL.

B3: CA4: anti-tau core clone, Table 10; SEQ ID NO: 368 (protein)
scFv: QVQLQESGPSLVKPSQTLSLTCTVSGFSLTSYSVYWVRQAPGQALEWISIMYASGRVDYNPALKSRLSITRDTSKSQFSLSLSSVTTEDTAVYYCTRGIENWGPGLLVTVSSEGKSSGASGESKVDDDIQVTQSPSSLSASLTERVSITCRTSQSVNNYLSWYQQKPGQAPKLLIYYATRLYTDVPSRFSGSGSGTDYTLTITSLEADDTATYYCLQYDSTPLAFGGGTNVEIK
modifications: CA4 amino acid sequence
Take B3: in assay [1], the “Tau proteins/fragments” value is on record as “hT40, 239-441, 297-390 (dGA)” and the “Shortest region bound on hT40” value was 355-367. Further, the Epitope in assay [1] (Table 26 summary, top scAbs, residues of hT40) is given as 355-367. Besides, the “Detection scAb (Epitope)” value in assay [1] (residues of hT40) is “CA4 (355-367)”. Also, the “Binding regions on hT40” value in assay [1] (Table 33, core binding scAbs tested in epitope occlusion assays) is on record as 355-367. For the same molecule, in assay [1] (setting [4]), the Epitope is reported as 355-367. In addition, the critical binding residues in assay [2] is 358 (D), 360 (I), 361 (T), 362 (H) and/or 364 (P). For the same molecule, in assay [3], the “ka” value amounted to 458100 M⁻¹ s⁻¹ and the “kd” value is 0.001654 s⁻¹. In the assay with htau40 (setting [5]), the “ka” value was determined as 1.02e+06 M⁻¹ s⁻¹ and the “kd” value was 0.001276 s⁻¹. In addition, the Kd with htau40 (as quoted in Example 32, read-out: affinity) stood at 3 nM. In addition, the “immunoreactivity to dGAE aggregation samples prepared in the presence of LMTM” value with dGAE aggregates is “increase in immunoreactivity”.

B4: CA9: anti-tau clone, Tables 2 and 10; SEQ ID NO: 371 (protein)
scFv: QVQLQESGPSLVKPSQTLSLTCTVSGFSLTSNSVGWVRQAPGKAPEWVAGIDTDGEEGYNPALNSRLSITRDTSKSQVSLSLSSVTSEDTAVYYCGRSYRSDGLAYGYVQAIDYWGPGLLVTVSSEGKSSGASGESKVDDQAVLTQPASVSGSLGQRVSITCSGSFIGISSVGWFQQLPGSGLRTIIVASDGRPSGVPDRFSMSKSGNTATLTISSLQAEDEADYFCGSSDRTQYTGVFGSGTRLTVLG
modifications: CA9 amino acid sequence
With B4, in assay [1], the “Tau proteins/fragments” value is listed as “hT40, 239-441, 348-441, 297-390 (dGA)” and the “Shortest region bound on hT40” value was 367-379. Also, in assay [2], the critical binding residues is given as 370 (K), and/or 374 (H). Further, the “immunoreactivity to dGAE aggregation samples prepared in the presence of LMTM” value with dGAE aggregates was “increase in immunoreactivity”.
